Measured values: article PMC10786891, “Massively parallel profiling of RNA-targeting CRISPR-Cas13d”
Residue numbers refer to the chain shown, from its start. Names and notes keep the numbering of the source.

T1: EsCas13d, nuclease-dead (Eubacterium siraeum, UniProt B0MS50, R295A;H300A;R849A;H854A)
T1 sequence: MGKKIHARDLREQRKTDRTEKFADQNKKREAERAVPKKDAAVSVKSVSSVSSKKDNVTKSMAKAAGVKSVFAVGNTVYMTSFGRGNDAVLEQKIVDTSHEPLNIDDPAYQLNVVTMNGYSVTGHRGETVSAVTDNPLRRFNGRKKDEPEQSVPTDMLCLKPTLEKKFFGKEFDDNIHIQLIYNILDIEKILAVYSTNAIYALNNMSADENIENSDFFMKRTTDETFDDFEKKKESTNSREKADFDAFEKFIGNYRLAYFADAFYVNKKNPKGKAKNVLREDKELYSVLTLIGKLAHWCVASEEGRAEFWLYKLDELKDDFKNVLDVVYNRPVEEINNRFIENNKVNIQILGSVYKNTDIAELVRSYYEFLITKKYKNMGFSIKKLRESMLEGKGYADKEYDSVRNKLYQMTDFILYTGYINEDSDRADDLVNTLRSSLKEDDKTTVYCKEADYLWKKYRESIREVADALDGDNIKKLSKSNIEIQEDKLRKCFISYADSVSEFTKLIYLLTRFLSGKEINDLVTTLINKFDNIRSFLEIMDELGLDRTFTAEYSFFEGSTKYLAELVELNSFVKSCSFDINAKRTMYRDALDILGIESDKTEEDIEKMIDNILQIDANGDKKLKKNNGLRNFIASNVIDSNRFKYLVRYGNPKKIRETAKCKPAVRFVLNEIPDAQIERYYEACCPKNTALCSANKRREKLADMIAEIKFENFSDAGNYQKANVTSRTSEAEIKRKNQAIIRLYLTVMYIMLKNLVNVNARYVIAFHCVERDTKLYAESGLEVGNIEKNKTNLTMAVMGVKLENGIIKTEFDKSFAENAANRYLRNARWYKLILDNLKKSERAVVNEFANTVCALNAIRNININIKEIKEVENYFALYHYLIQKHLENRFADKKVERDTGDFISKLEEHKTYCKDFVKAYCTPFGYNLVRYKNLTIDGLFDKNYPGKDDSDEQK

B1: target 1 U3A,U11C (mixed)
RNA 1: CACCCGUGCAAAAAUGCAGGGGUCUAAAACUGAGCGGAUAACCUCUCUAUGG
RNA 2: GGGAAUGGAUCCACAUCUACGAAUUCGUACCAUAGAGAGGCUAUCCGCACACCGAGAUCGGAAGAGCACACGU
B2: target 1 G15U,G17A (mixed)
RNA 1: B1 RNA 1
RNA 2: B1 RNA 2 with G35A, G37U, C41U, A49U
B3: target 1 G12U,A18U (mixed)
RNA 1: B1 RNA 1
RNA 2: B1 RNA 2 with A34U, G40U, C41U, A49U
B4: target 1 insG 3' of 10,insG 3' of 10 (mixed)
RNA 1: B1 RNA 1
RNA 2: GGGAAUGGAUCCACAUCUACGAAUUCGUACCAUAGAGAGGUUGGAUCCGCUCACCGAGAUCGGAAGAGCACACGU
B5: target 3 insU 3' of 11,insG 3' of 5 (mixed)
RNA 1: CACCCGUGCAAAAUUGCAGGGGUCUAAAACGACCUGAAUAUUUCAGAUCAAA
RNA 2: GGGAAUGGAUCCACAUCUACGAAUUCGUUUUUGAUCUGAAAUUAUUCAGGGUCUGCAGAUCGGAAGAGCACACGU
B6: target 3 insC 3' of 15,insC 3' of 11 (mixed)
RNA 1: B5 RNA 1
RNA 2: B5 RNA 2 with G38C, A39G, U42A, U43C, A44U, U45A, C47U, A48C, G49A
B7: target 3 A9U (mixed)
RNA 1: B5 RNA 1
RNA 2: GGGAAUGGAUCCACAUCUACGAAUUCGUUUUUGAUCUGAAAUUUUCAGGUCUGCAGAUCGGAAGAGCACACGU
B8: target 3 insG 3' of 8,insG 3' of 6 (mixed)
RNA 1: B5 RNA 1
RNA 2: B5 RNA 2 with U43A, A44U, U45G, A48G, G49A
B9: target 3 U2G,U22C (mixed)
RNA 1: B5 RNA 1
RNA 2: B7 RNA 2 with U30C, U43A, U50G
B10: target 3 insA 3' of 15,insU 3' of 3 (mixed)
RNA 1: B5 RNA 1
RNA 2: B5 RNA 2 with G38A, A39G, U42A, G51U
B11: target 3 insC 3' of 9,insC 3' of 3 (mixed)
RNA 1: B5 RNA 1
RNA 2: B5 RNA 2 with U43A, A44C, G51C
B12: target 3 insG 3' of 2,insG 3' of 2 (mixed)
RNA 1: B5 RNA 1
RNA 2: B5 RNA 2 with U43A, A44U, U46C, C47A, A48G, G50U, U52G
B13: target 3 insU 3' of 16,insG 3' of 2 (mixed)
RNA 1: B5 RNA 1
RNA 2: B5 RNA 2 with G38U, A39G, U42A, G51U, U52G
B14: target 3 C16U,U22A (mixed)
RNA 1: B5 RNA 1
RNA 2: B7 RNA 2 with U30A, C36U, U43A
B15: target 3 C1A,U7C (mixed)
RNA 1: B5 RNA 1
RNA 2: B7 RNA 2 with U43A, U45C, C51A
B16: target 3 del6 (mixed)
RNA 1: B5 RNA 1
RNA 2: GGGAAUGGAUCCACAUCUACGAAUUCGUUUUUGAUCUGAAAUAUUAGGUCUGCAGAUCGGAAGAGCACACGU
B17: target 3 C1U,G3A (mixed)
RNA 1: B5 RNA 1
RNA 2: B7 RNA 2 with U43A, G49A, C51U
B18: target 3 C6G,U7A (mixed)
RNA 1: B5 RNA 1
RNA 2: B7 RNA 2 with U43A, U45A, C46G
B19: target 3 insA 3' of 2,insG 3' of 1 (mixed)
RNA 1: B5 RNA 1
RNA 2: B5 RNA 2 with U43A, A44U, U46C, C47A, A48G, G50U, G51A, U52C, C53G
B20: target 3 insG 3' of 5,insA 3' of 2 (mixed)
RNA 1: B5 RNA 1
RNA 2: B5 RNA 2 with U43A, A44U, U46C, C47A, A48G, G51U, U52A
B21: target 3 insA 3' of 21,insC 3' of 3 (mixed)
RNA 1: B5 RNA 1
RNA 2: GGGAAUGGAUCCACAUCUACGAAUUCGUUUUAUGAUCUGAAAUAUUCAGGCUCUGCAGAUCGGAAGAGCACACGU
B22: target 3 insU 3' of 9,insG 3' of 7 (mixed)
RNA 1: B5 RNA 1
RNA 2: B5 RNA 2 with U43A, A44U, C47G, A48C, G49A
B23: target 3 insC 3' of 9,insU 3' of 5 (mixed)
RNA 1: B5 RNA 1
RNA 2: B5 RNA 2 with U43A, A44C, G49U
B24: target 3 insC 3' of 13,insA 3' of 2 (mixed)
RNA 1: B5 RNA 1
RNA 2: B5 RNA 2 with A40C, U42A, G51U, U52A
B25: target 3 U2G,U20C (mixed)
RNA 1: B5 RNA 1
RNA 2: B7 RNA 2 with U32C, U43A, U50G
B26: target 3 C1G,A5U (mixed)
RNA 1: B5 RNA 1
RNA 2: B7 RNA 2 with U43A, A47U, C51G
B27: target 3 insU 3' of 9,insA 3' of 7 (mixed)
RNA 1: B5 RNA 1
RNA 2: B5 RNA 2 with U43A, A44U, C47A, A48C, G49A
B28: target 3 insU 3' of 22,insC 3' of 22 (mixed)
RNA 1: B5 RNA 1
RNA 2: GGGAAUGGAUCCACAUCUACGAAUUCGUUUUCUUGAUCUGAAAUAUUCAGGUCUGCAGAUCGGAAGAGCACACGU
B29: target 3 U2C,U8G (mixed)
RNA 1: B5 RNA 1
RNA 2: B7 RNA 2 with U43A, U44G, U50C
B30: target 3 U7A,A18G (mixed)
RNA 1: B5 RNA 1
RNA 2: B7 RNA 2 with A34G, U43A, U45A
B31: target 3 insC 3' of 7,insA 3' of 3 (mixed)
RNA 1: B5 RNA 1
RNA 2: B5 RNA 2 with U43A, A44U, U46C, G51A
B32: target 3 insU 3' of 5,insA 3' of 4 (mixed)
RNA 1: B5 RNA 1
RNA 2: B5 RNA 2 with U43A, A44U, U46C, C47A, A48U, G50A
B33: target 3 insG 3' of 6,insA 3' of 6 (mixed)
RNA 1: B5 RNA 1
RNA 2: B5 RNA 2 with U43A, A44U, U46C, C47G, G49A
B34: target 3 U7C (mixed)
RNA 1: B5 RNA 1
RNA 2: B7 RNA 2 with U43A, U45C

What follows are binders tested against T1, EsCas13d, nuclease-dead (assay: crRNA (strand 1, pre-loaded); Mg2+; 40 mM Tris-HCl pH 7.5, 150 mM NaCl, 6 mM MgCl2, 1 mM DTT, 0.1% Tween-20, 0.2 mg/ml BSA; 25 C; 10 min per concentration, then washed). Settings: tags: His6-TwinStrep-SUMO cleaved; N-terminal SNAP kept (SNAP-Surface 488); label: 3' end held by stalled T7 RNA polymerase.

First: B1
Second: B2
The Kd of the first is 5.1-fold lower: 10.3 ± 1.2 nM for the first, 53 ± 5 nM for the second. The first binds more tightly here.

Going from B3 to B4, the Kd falls from 44 ± 10 nM to 21.8 ± 2.2 nM (2-fold). The second binds more tightly here.

First: B5
Second: B6
The Kd of the first is 2.3-fold higher: 104 ± 29 nM for the first, 46 ± 4 nM for the second.

Compared with B7, B8 is 3.8-fold lower in Kd: about 120 nM for the first, 31.6 ± 2.7 nM for the second.

Compared with B9, B10 is 3-fold higher in Kd: 19.8 ± 3.55 nM for the first, 59.5 ± 12.5 nM for the second.

Going from B11 to B12, the Kd falls from 88 ± 24.5 nM to 22 ± 2.05 nM (4-fold).

Compared with B13, B14 is 4.3-fold higher in Kd: 16.1 ± 1.9 nM for the first, 70 ± 11 nM for the second.

First: B15
Second: B16
The Kd of the first is 2.6-fold higher: 100 ± 40 nM for the first, 38.4 ± 3.55 nM for the second.

B17 and B18 are within error of each other in Kd: 45 ± 10.5 nM for the first, 48.5 ± 5.5 nM for the second.

B19 and B20 are within error of each other in Kd: 36 ± 9 nM for the first, 39 ± 6 nM for the second.

Going from B21 to B22, the Kd rises from 35 ± 5 nM to 84.5 ± 18.5 nM (2.4-fold).

B23 and B24 are within error of each other in Kd: 76.5 ± 12.5 nM for the first, 70 ± 13 nM for the second.

Going from B25 to B26, the Kd falls from 50 ± 19 nM to 10.1 ± 1.55 nM (5-fold).

B27 and B28 are within error of each other in Kd: 51 ± 10.5 nM for the first, 39.5 ± 6 nM for the second.

Going from B29 to B30, the Kd falls from 95.5 ± 20.5 nM to 49 ± 6 nM (1.9-fold). The second binds more tightly here.

Going from B31 to B32, the Kd falls from 68 ± 14 nM to 9.9 ± 1.8 nM (6.9-fold).

Going from B33 to B34, the Kd rises from 8.8 ± 0.75 nM to 56 ± 7 nM (6.4-fold). The first binds more tightly here.
